Results as given in paper PMC9097884 (Science Immunology, 2022).

Key:
[1] = molecular target: SARS-CoV-2 S1 (residues 1-682, Wuhan-Hu-1) (SARS-CoV-2 (Wuhan-Hu-1 strain), UniProt P0DTC2); test: ELISA; conditions: both partners purified
[2] = molecular target: T1, SARS-CoV-2 S receptor-binding domain (RBD, residues 329-538, Wuhan-Hu-1) (SARS-CoV-2 (Wuhan-Hu-1 strain), UniProt P0DTC2); test: ELISA; conditions: both partners purified
T1 construct: also called SARS-CoV-2 S RBD domain; not shown: Strep-tag, C-terminal, kept

Binder | binding result [1] | binding result [2]
REGN10987 (recombinant human IgG1/kappa) (antibody, V domains shown) VH: QVQLVESGGGVVQPGRSLRLSCAASGFTFSNYAMYWVRQAPGKGLEWVAVISYDGSNKYYADSVKGRFTISRDNSKNTLYLQMNSLRTEDTAVYYCASGSDYGDYLLVYWGQGTLVTVSS VL: QSALTQPASVSGSPGQSITISCTGTSSDVGGYNYVSWYQQHPGKAPKLMIYDVSKRPSGVSNRFSGSKSGNTASLTISGLQSEDEADYYCNSLTSISTWVFGGGTKLTVL | binds | 
REGN10933 (recombinant human IgG1/kappa) (antibody, V domains shown, source: HEK-293T, transient transfection, purified (Protein A Sepharose)) VH: QVQLVESGGGLVKPGGSLRLSCAASGFTFSDYYMSWIRQAPGKGLEWVSYITYSGSTIYYADSVKGRFTISRDNAKSSLYLQMNSLRAEDTAVYYCARDRGTTMVPFDYWGQGTLVTVSS VL: DIQMTQSPSSLSASVGDRVTITCQASQDITNYLNWYQQKPGKAPKLLIYAASNLETGVPSRFSGSGSGTDFTFTISGLQPEDIATYYCQQYDNLPLTFGGGTKVEIK | binds | binds
87G7 human monoclonal antibody (recombinant human IgG1/kappa) (antibody, V domains shown, also called 87G7 IgG; 87G7 mAb) VH: EVQLLESGGGLVQPGGSLRLSCVASGFTFSSYVMSWVRQAPGKGLEWVAAISGSGGNTYYADSVKGRFTISRDNSKNTLYLQMNSLRAEDTAVYYCAKEGTYYYGSGSFWGQGTLVTVSS VL: EIVLTQSPATLSLSPGERATLSCRASQSFHNYLAWYQQKPGRAPRLLIFDASNRATGIPARFSGSGSGTDFTLTISSLEPEDFAVYYCQQRFNWPLTFGGGTKVEIK | binds | binds
